This is an account of results in publication PMC12259851, “Rapid detection and capture of clinical Escherichia coli strains mediated by OmpA-targeting nanobodies” (Communications Biology, 2025).

For assay [1], the target named is T1, OmpA-short on clinical E. coli strain CS#2 (Escherichia coli clinical isolate CS#2 …, UniProt P0A910, strain).
T1 construct: OmpA, short isoform, of clinical isolate CS#2; Dense O-antigen layer; source: endogenous, on cells of clinical E. coli isolate CS#2
Briefly: flow cytometry on cells; as a8, CS#2, with the anticoagulant heparin. The note with it: one partner purified.

Assay [2] addresses T1, OmpA-short on clinical E. coli strain …. The assay is described as follows: flow cytometry on cells; as a8, CS#2, with the anticoagulant citrate phosphate dextrose (CPD). Particulars: one partner purified. (In flow cytometry, cells or beads pass a laser one at a time.)
Assay [3] has the same target. Briefly: flow cytometry on cells; as a8, CS#2, with EDTA during staining. Particulars: one partner purified.
Assay [4] deals with T2, OmpA-short on E. coli K-12 MC1061 cells (Escherichia coli K-12 MC1061, UniProt P0A910).
T2 construct: Strain devoid of O-antigen; source: endogenous, on E. coli MC1061 cells
The assay is described as follows: flow cytometry on cells; concentration series of Nb01-AF647; cells fixed after staining (2% PFA), CytoFlex S, triplicates; Hill equation; apparent affinity (EC50); cells grown in LB. The note with it: one partner purified.

Assay [5] has as its target T1, OmpA-short on clinical E. coli strain …. The assay is described as above. The note with it: one partner purified.
Assay [6] addresses T3, OmpA-short on clinical E. coli strain CS#1 (Escherichia coli clinical isolate CS#1 …, UniProt P0A910, strain).
T3 construct: OmpA, short isoform, of clinical isolate CS#1; Loose, partially permeable O-antigen layer; also called clinical strain #1; source: endogenous, on cells of clinical E. coli isolate CS#1
The assay is described as above. The note with it: one partner purified.

The target in assay [7] is T4, OmpA-short on E. coli K1 strain ATCC 11775 (Escherichia coli K1 ATCC 11775, strain).
T4 construct: OmpA, short isoform, of E. coli K1 ATCC 11775; loop regions identical to those of MC1061 OmpA-short; Strain with a K1 polysaccharide capsule; also called E. coli K1 OmpA-short; source: endogenous, on cells of E. coli K1 ATCC 11775
T4 chain: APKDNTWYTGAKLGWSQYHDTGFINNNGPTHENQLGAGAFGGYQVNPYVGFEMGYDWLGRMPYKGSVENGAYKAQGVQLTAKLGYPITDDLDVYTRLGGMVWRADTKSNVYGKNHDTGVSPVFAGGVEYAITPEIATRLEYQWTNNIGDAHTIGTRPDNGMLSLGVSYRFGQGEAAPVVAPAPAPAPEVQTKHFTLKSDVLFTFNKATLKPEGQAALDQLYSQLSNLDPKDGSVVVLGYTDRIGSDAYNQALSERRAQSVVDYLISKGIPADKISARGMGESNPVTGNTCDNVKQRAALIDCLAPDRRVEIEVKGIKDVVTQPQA
The assay is described as above. The note with it: one partner purified.

In assay [8] the target is T5, Transmembrane domain of OmpA-short (Escherichia coli K-12 MC1061, UniProt P0A910).
T5 construct: OmpA, short isoform, E. coli K-12 MC1061, transmembrane (β-barrel) domain; also called β-barrel domain of OmpA-short
Briefly: crystal structure; β-barrel domain of OmpA mixed 1:1.1 with the nanobody, sitting drop vapor diffusion at 20 °C; interface analysed with PDBePISA. Particulars: both partners purified.

For assay [9], the target named is T6, OmpF on E. coli K-12 MC1061 cells (Escherichia coli K-12 MC1061, UniProt P02931).
T6 construct: outer membrane protein OmpF, E. coli K-12 MC1061; The homotrimeric state is cited from other work; also called E. coli K12 strain; source: endogenous, on E. coli MC1061 cells
The assay is described as follows: flow cytometry on cells; Nb18 on the E. coli K12 strain (Supplementary Fig. 11c); conditions not told for this experiment. Particulars: one partner purified.

T6 sequence (P02931 23-362): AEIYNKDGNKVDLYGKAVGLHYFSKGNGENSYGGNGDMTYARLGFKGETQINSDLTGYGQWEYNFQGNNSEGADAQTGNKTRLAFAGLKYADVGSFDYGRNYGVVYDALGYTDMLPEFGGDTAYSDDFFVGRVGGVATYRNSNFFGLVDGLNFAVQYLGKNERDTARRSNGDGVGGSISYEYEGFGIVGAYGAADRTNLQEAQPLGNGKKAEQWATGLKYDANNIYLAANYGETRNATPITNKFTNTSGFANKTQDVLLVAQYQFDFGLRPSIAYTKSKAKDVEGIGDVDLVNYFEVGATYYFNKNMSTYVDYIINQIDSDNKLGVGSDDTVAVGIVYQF

B1: Nb01-AF647 (VHH)
VHH: QVQLVESGGGLVQPGGSLRLSCVVSGTGFTFSKSPMSWARQAPGKEREWVSAIFADSSTYYSDSVRGRFTISRDNAKNTVYLQMNNVKPEDTAVYYCGHRRLGKTTYDYRGKGTRVTVSA
notes: nanobody Nb01 (alpaca VHH against OmpA-short); also called AlexaFluor647-labeled Nb01; source: E. coli MC1061 ΔompA (pSBinit), periplasmic extraction, purified (Ni-NTA, SEC), labelled with maleimide-AF647
With B1, the EC50 in assay [1] was 4.7 nM; in [2], 7.4 nM; in assay [3], 4.98 nM; in assay [4], 12.9 nM; in assay [5], 61.1 nM; in assay [6] it was 25.9 nM. The EC50 in assay [7] came to 84.9 nM.

B2: Nb01 (for X-ray crystallography) (VHH)
VHH: QVQLVESGGGLVQPGGSLRLSCVVSGTGFTFSKSPMSWARQAPGKEREWVSAIFADSSTYYSDSVRGRFTISRDNAKNTVYLQMNNVKPEDTAVYYCGHRRLGKTTYDYRGKGTRVTVSA
notes: nanobody Nb01 (alpaca VHH against OmpA-short); source: E. coli MC1061 ΔompA (pBXNPHM3), purified (Ni-NTA, 3C cleavage, reverse Ni-NTA, SEC)
As to B2, the binding result in assay [8] is on record as “binds”.

B3: Nb18 (for flow cytometry) (VHH)
VHH: QRQLVESGGGLVQAGGSLTLSCSATGTVPRIDAMGWYRRSTGKKREQVASVGRGGRTNYSDSAKGRFTISRNGNTVTLQMTSLKPEDTDVYFCNALKYGRNADYDDYWGRGTRVTVSA
notes: nanobody Nb18 (alpaca VHH against OmpF); the flow cytometry methods speak of Alexa Fluor 647-labeled nanobodies (cysteine at the C-terminus, pSBinit with myc- and His-tag); also called OmpF nanobody
On to B3, for which, in [9], the EC50 was determined as 3 nM.

The term EC50 denotes the concentration at which the effect is half-maximal.
